Assay results as given in patent US10464978B2, “Peptides and combination of peptides for use in immunotherapy against ovarian cancer and other cancers” (immatics biotechnologies GmbH, priority 2015, dated 2019).

target: HLA-A*02:01 (Homo sapiens, UniProt P04439, D140Y/D185E/D98H/E176V/E277Q/G131W/G231S/I119V/I121R/I166T/I218V/L300P/L318F/N151K/N90K/P208A/P217A/Q86G/Q94H/R138H/R169H/T345S); test: MHC binding assay: UV-ligand exchange with beta2m ELISA (peptide exchange yield); conditions: binding to HLA-A*02:01
Outline: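 Peptide-MHC complexes formed by UV-ligand exchange, a UV-cleavable peptide being replaced by the candidate peptide. Exchange products diluted 100-fold, captured on streptavidin-coated plates for 1h at 37° C, then detected with 2 ug/ml HRP anti-β2m (1h, 37° C) and TMB, absorbance 450 nm; value is exchange yield.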

Substance | Peptide exchange (MHC class I binding score, peptide exchange yield)
135 (ALSEVDFQL; listed as Homo sapiens) [compound 135] | “+++” (≥50 = +++)
118 (KLIDNNINV; listed as Homo sapiens) [compound 118] | “+++” (≥50 = +++)
36 (YVLEDLEVTV; listed as Homo sapiens) [compound 36] | “++” (≥20% = ++)
72 (SLLELDGINL; listed as Homo sapiens) [compound 72] | “+++” (≥50 = +++)
114 (SLVGEPILQNV; listed as Homo sapiens) [compound 114] | “++” (≥20% = ++)
77 (ILVEADGAWVV; listed as Homo sapiens) [compound 77] | “++++” (≥75% = ++++)
11 (KIFEMLEGV; listed as Homo sapiens) [compound 11] | “+++” (≥50 = +++)
102 (YLFESEGLVL; listed as Homo sapiens) [compound 102] | “+++” (≥50 = +++)
90 (TLLQIIETV; listed as Homo sapiens) [compound 90] | “+++” (≥50 = +++)
27 (ILADIVISA; listed as Homo sapiens) [compound 27] | “+++” (≥50 = +++)
147 (SLLEAVSFL; listed as Homo sapiens) [compound 147] | “+++” (≥50 = +++)
84 (VTFGEKLLGV; listed as Homo sapiens) [compound 84] | “++” (≥20% = ++)

Next, values leading:

Peptide exchange (MHC class I binding score, peptide exchange yield) | Substance
“+++” (≥50 = +++) | 521 (MLLTKLPTI; listed as Homo sapiens) [compound 521]
“++” (≥20% = ++) | 274 (SLLFSLFEA; listed as Homo sapiens) [compound 274]
“+++” (≥50 = +++) | 193 (QLLDADGFLNV; listed as Homo sapiens) [compound 193]
“+++” (≥50 = +++) | 512 (SLSEIVPCL; listed as Homo sapiens) [compound 512]
“++” (≥20% = ++) | 405 (ALYDVFLEV; listed as Homo sapiens) [compound 405]
“++” (≥20% = ++) | 491 (GLNDRSDAV; listed as Homo sapiens) [compound 491]
“+++” (≥50 = +++) | 592 (RLLSAAENFL; listed as Homo sapiens) [compound 592]
“++++” (≥75% = ++++) | 289 (VLLEIEDLQV; listed as Homo sapiens) [compound 289]
“+++” (≥50 = +++) | 480 (ALLEDSCHYL; listed as Homo sapiens) [compound 480]
“++” (≥20% = ++) | 393 (GLLDTQTSQVLTA; listed as Homo sapiens) [compound 393]
“++” (≥20% = ++) | 376 (AMFESSQNVLL; listed as Homo sapiens) [compound 376]
“+++” (≥50 = +++) | 433 (AMLNEPWAV; listed as Homo sapiens) [compound 433]
“+++” (≥50 = +++) | 262 (LLWGDLIWL; listed as Homo sapiens) [compound 262]
“++++” (≥75% = ++++) | 568 (TLYDIAHTPGV; listed as Homo sapiens) [compound 568]
“+++” (≥50 = +++) | 578 (FLDPGGPMMKL; listed as Homo sapiens) [compound 578]
“+++” (≥50 = +++) | 181 (LLWAGTAFQV; listed as Homo sapiens) [compound 181]
